# Measurements: patent publication EP4574844A1 (Numab Therapeutics AG, dated 2025)
# Like-named read-outs stand apart in the source and are kept apart here.
# B1: PRO2518 (antibody, human IgG4 S228P, kappa, V domains shown)
# VH: QITLKESGPTLVKPTQTLTLTCTFSGFSLNTYAMGVSWIRQPPGKALEWLASIWWNGNKYNNPSLKSRLTVTKDTSKNQVVLTMTNMDPVDTATYYCAHSRIIRFTDYVMDAWGQGTLVTVSS
# VL: DIQMTQSPSSLSTSVGDRVTITCRASEDIYNDLAWYQQKPGKAPKLLIYNANSLHTGVASRFSGSGSGTDFTFTISSLQPEDVATYFCQQYYDYPLTFGQGTKLEIKR
# notes: also called J19.H1; J-19
# B2: PRO3790 (bispecific antibody, human IgG1, kappa)
# chain: DVQMTQSPSSLSASVGDRVTITCQASQSISSWVSWYQQKPGKPPKLLIYRGGYLESGVPSRFSASGSGTDFTLTISSLQPEDFATYYCQSTDSSTYGGAFGCGTKVTVLGGGGGSGGGGSGGGGSGGGGSQQVVESGGGLVQPGGSLRLSCAVSGIDLNSYAMTWVRQAPGKCLEWIGYIGSASSTYYASWASGRFTISKDNSKNTVYLQMNSLRAEDSAVYFCARGSTYINIWGQGTLVKVSSEPKSSDKTHTCPPCPAPELLGGPSVFLFPPKPKDTLMISRTPEVTCVVVDVSHEDPEVKFNWYVDGVEVHNAKTKPREEQYNSTYRVVSVLTVLHQDWLNGKEYKCKVSNKALPAPIEKTISKAKGQPREPQVYTLPPCREEMTKNQVSLSCAVKGFYPSDIAVEWESNGQPENNYKTTPPVLDSDGSFFLVSKLTVDKSRWQQGNVFSCSVMHEALHNHYTQKSLSLSPGK
# heavy: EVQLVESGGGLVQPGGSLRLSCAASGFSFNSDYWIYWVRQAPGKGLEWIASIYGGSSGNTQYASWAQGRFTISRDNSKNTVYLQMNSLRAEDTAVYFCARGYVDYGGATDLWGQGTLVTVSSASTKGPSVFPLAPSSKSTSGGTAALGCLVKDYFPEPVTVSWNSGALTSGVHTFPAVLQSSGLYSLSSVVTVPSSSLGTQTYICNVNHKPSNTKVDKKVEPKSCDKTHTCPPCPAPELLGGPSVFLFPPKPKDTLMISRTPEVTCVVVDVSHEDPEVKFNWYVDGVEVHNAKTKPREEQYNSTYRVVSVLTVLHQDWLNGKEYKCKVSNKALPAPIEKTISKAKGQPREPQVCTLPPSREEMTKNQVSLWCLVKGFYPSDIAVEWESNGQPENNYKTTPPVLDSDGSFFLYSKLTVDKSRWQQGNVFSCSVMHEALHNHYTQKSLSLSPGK
# light: DIQMTQSPASLSASVGDRVTITCQASQSIGTYLAWYQQKPGKPPKLLIYRAFILASGVPSRFSGSGSGTDFTLTISSLQPEDFATYYCQSNFYSDSTTIGPNAFGQGTKVEIKRTVAAPSVFIFPPSDEQLKSGTASVVCLLNNFYPREAKVQWKVDNALQSGNSQESVTEQDSKDSTYSLSSTLTLSKADYEKHKVYACEVTHQGLSSPVTKSFNRGEC
# notes: anti-CD47 x PDL1: 70-26-B04-sc03 scFv on hole-Fc, 37-20-B03-sc09.1 Fab on knob-Fc
# B3: PRO3635 (antibody, human IgG4 S228P, kappa, V domains shown)
# VH: QQLVESGGGRVQPGGSLRLSCAASGFSFTNNYYMCWVRQAPGKGLEWIACMLVGAWGNTYYASWANGRFTISKDNSKNTVYLQMNSLRAEDTATYFCARARDYTWTLGGDPETSGFNLWGQGTQVTVSS
# VL: DVQMTQSPSSLSASVGDRVTITCQASQSIGSNLAWYQQKPGKPPKLLIYKASTLESGVPSRFSGSGSGTDFTLTISSLQPEDFATYYCQSTAGSSRSGNYGYVFGQGTKVEIKR
# notes: anti-LILRB2 IgG4; also called 68-18-E11-sc02 IgG4; IgG variant of scFv PRO3064
# B4: PRO5053 (antibody)
# chain 1: DVQMTQSPSSLSASVGDRVTITCQASQSISSWVSWYQQKPGKPPKLLIYRGGYLESGVPSRFSASGSGTDFTLTISSLQPEDFATYYCQSTDSSTYGGAFGCGTKVTVLGGGGGSGGGGSGGGGSGGGGSQQVVESGGGLVQPGGSLRLSCAVSGIDLNSYAMTWVRQAPGKCLEWIGYIGSASSTYYASWASGRFTISKDNSKNTVYLQMNSLRAEDSAVYFCARGSTYINIWGQGTLVKVSSEPKSSDKTHTCPPCPAPELLGGPSVFLFPPKPKDTLMISRTPEVTCVVVDVSHEDPEVKFNWYVDGVEVHNAKTKPREEQYNSTYRVVSVLTVLHQDWLNGKEYKCKVSNKALPAPIEKTISKAKGQPREPQVYTLPPCREEMTKNQVSLSCAVKGFYPSDIAVEWESNGQPENNYKTTPPVLDSDGSFFLVSKLTVDKSRWQQGNVFSCSVMHEALHNHYTQKSLSLSPGKGGGGSGGGGSDIQMTQSPSSLSASVGDRVTITCQSSESVYSNNQLSWYQQKPGQPPKLLIYDASDLASGVPSRFSGSGSGTDFTLTISSLQPEDFATYYCAGGFSSSSDTAFGCGTKLTVLGGGGGSGGGGSGGGGSGGGGSEVQLVESGGGLVQPGGSLRLSCAASGFSLSSNAMGWVRQAPGKCLEYIGIISVGGFTYYASWAKGRFTISRDNSKNTVYLQMNSLRAEDSATYFCARDRHGGDSSGAFYLWGQGTLVKVSS
# chain 2: not shown
# notes: anti-PDL1 x CD47 x (hSA dummy domain); also called PRO5052 with dummy domain for LILRB2-BD
# Key:
# [1] = target: T1, human LILRB2 on the cell surface (human, UniProt Q8N423 22-597); assay: positive control of the LILRB2 ligand-blocking flow cytometry assay
# T1 construct: whole, on cells; also called CHO K1 cells expressing human LILRB2; LILRB2 on HMDMs
# [2] = target: T2, human CD47 on the cell surface (human, UniProt Q08722 19-323); assay: flow cytometry, human erythrocytes
# T2 construct: whole, on cells; also called plasma membranous CD47; CHO CD47 cells
# [3] = target: T2, human CD47 on the cell surface; assay: flow cytometry, NCI-H292 cells; competitor biotinylated SIRPα; by the text maximum inhibition normalised to PRO2777
# [4] = target: T2, human CD47 on the cell surface; assay: flow cytometry, NCI-H292 cells (CD47+ PD-L1+); competitor biotinylated SIRPα; column head prints EC50
# [5] = target: T2, human CD47 on the cell surface; assay: flow cytometry, CHO CD47 cells; competitor biotinylated SIRPα; column head prints EC50
# [6] = target: T2, human CD47 on the cell surface; assay: flow cytometry, CHO CD47 cells; competitor biotinylated SIRPα; by the text maximum inhibition normalised to PRO2777
# [7] = target: T3, human PD-L1 on the cell surface (human, UniProt Q9NZQ7 19-290); assay: cell-based or functional assay
# [8] = target: T2, human CD47 on the cell surface; assay: cell-based or functional assay
# [9] = target: T3, human PD-L1 on the cell surface; assay: cell-based or functional assay; remark: listed apart in the source
# [10] = target: T4, recombinant human PDL1 (human, UniProt Q9NZQ7 19-238, limits assumed); assay: SPR, antigen immobilised, antibody as analyte
# T4 construct: SPR antigen; also called CD274; B7-H1
# [11] = target: T5, recombinant human CD47 (human, UniProt Q08722 19-139, limits assumed); assay: SPR, antigen immobilised, antibody as analyte
# [12] = target: T2, human CD47 on the cell surface; assay: flow cytometry, HT-29 cells (CD47+, no PD-L1)
# [13] = target: T6, LILRA1 on transiently transfected CHO cells (UniProt O75019 17-489, limits assumed); assay: CELISA, transiently transfected CHO cells
# T6 construct: whole, on cells; V5 tag at the N-terminus
# [14] = target: T7, LILRA4 on transiently transfected CHO cells (UniProt P59901 24-499); assay: CELISA, transiently transfected CHO cells
# T7 construct: whole, on cells; V5 tag at the N-terminus
# [15] = target: T8, LILRB3 on transiently transfected CHO cells (UniProt O75022 24-631, limits assumed); assay: CELISA, transiently transfected CHO cells
# T8 construct: whole, on cells; V5 tag at the N-terminus
# [16] = target: T9, LILRA6 on transiently transfected CHO cells (UniProt Q6PI73 24-481); assay: CELISA, transiently transfected CHO cells
# T9 construct: whole, on cells; V5 tag at the N-terminus
# [17] = target: T10, LILRA2 on transiently transfected CHO cells (UniProt Q8N149 24-483); assay: CELISA, transiently transfected CHO cells
# T10 construct: whole, on cells; V5 tag at the N-terminus
# [18] = target: T11, LILRB5 on transiently transfected CHO cells (UniProt O75023 24-590, limits assumed); assay: CELISA, transiently transfected CHO cells
# T11 construct: whole, on cells; V5 tag at the N-terminus
# [19] = target: T12, LILRA3 on transiently transfected CHO cells (UniProt Q8N6C8 24-439); assay: CELISA, transiently transfected CHO cells
# T12 construct: whole, on cells; V5 tag at the N-terminus
# [20] = target: T13, LILRB2 (Q8N423-2) on transiently transfected CHO cells (UniProt Q8N423-2 22-597); assay: CELISA, transiently transfected CHO cells
# T13 construct: whole, on cells
# [21] = target: T14, LILRB4 on transiently transfected CHO cells (UniProt Q8NHJ6 22-448); assay: CELISA, transiently transfected CHO cells
# T14 construct: whole, on cells; V5 tag at the N-terminus
# [22] = target: T15, LILRB1 on transiently transfected CHO cells (UniProt Q8NHL6 24-650); assay: CELISA, transiently transfected CHO cells
# T15 construct: whole, on cells; V5 tag at the N-terminus
# [23] = target: T16, LILRA5 on transiently transfected CHO cells (UniProt A6NI73 42-299); assay: CELISA, transiently transfected CHO cells
# T16 construct: whole, on cells; V5 tag at the N-terminus
# [24] = target: T4, recombinant human PDL1; assay: SPR, antigen immobilised, antibody as analyte; remark: listed apart in the source
# [25] = target: T5, recombinant human CD47; assay: SPR, antigen immobilised, antibody as analyte; remark: listed apart in the source
# [26] = target: T3, human PD-L1 on the cell surface; assay: cell-based or functional assay; remark: listed apart in the source
# [27] = target: T2, human CD47 on the cell surface; assay: cell-based or functional assay; remark: listed apart in the source
# T16 sequence (A6NI73 42-299): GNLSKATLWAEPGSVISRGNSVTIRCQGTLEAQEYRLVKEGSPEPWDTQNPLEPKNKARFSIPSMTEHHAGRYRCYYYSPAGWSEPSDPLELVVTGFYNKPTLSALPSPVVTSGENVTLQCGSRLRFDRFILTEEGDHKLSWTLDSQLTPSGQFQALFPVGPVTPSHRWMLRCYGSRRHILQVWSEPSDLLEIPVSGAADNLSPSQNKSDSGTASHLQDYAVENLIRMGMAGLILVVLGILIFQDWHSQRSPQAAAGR
# T1 sequence (Q8N423 22-597): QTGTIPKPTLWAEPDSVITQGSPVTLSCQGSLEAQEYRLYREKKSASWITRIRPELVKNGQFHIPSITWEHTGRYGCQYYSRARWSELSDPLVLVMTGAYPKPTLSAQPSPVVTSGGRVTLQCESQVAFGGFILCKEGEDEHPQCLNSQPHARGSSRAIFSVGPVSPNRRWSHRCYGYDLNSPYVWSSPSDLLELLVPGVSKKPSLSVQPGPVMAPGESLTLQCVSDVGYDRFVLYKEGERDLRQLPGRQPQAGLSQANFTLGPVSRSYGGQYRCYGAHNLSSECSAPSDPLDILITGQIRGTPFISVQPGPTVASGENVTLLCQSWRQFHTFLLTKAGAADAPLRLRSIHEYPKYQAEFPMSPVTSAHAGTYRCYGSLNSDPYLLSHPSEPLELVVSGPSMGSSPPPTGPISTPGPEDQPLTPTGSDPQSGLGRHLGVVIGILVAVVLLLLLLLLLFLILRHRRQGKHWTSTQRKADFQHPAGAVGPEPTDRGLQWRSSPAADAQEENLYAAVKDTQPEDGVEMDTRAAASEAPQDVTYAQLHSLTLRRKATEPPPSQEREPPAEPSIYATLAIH
# T13 sequence (Q8N423 22-597, one chain of several): as the sequence (Q8N423 22-597) above
# T15 sequence (Q8NHL6 24-650): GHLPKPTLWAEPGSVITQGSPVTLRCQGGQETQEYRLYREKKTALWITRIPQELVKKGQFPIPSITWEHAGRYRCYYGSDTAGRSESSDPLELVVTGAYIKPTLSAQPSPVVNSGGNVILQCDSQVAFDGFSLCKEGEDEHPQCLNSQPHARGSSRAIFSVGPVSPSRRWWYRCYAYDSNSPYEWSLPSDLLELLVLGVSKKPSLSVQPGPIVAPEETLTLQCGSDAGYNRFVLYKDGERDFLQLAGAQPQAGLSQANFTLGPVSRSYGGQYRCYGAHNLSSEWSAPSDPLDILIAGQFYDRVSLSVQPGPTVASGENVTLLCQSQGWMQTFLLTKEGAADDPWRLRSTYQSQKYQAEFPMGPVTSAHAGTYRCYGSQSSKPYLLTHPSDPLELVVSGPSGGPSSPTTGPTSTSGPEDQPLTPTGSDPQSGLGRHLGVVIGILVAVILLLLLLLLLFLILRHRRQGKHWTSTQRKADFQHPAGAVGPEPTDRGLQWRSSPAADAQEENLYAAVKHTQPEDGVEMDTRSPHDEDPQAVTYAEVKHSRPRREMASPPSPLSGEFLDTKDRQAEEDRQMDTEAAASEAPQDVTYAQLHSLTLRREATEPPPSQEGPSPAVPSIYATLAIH
# T6 sequence (O75019 17-489 limits assumed): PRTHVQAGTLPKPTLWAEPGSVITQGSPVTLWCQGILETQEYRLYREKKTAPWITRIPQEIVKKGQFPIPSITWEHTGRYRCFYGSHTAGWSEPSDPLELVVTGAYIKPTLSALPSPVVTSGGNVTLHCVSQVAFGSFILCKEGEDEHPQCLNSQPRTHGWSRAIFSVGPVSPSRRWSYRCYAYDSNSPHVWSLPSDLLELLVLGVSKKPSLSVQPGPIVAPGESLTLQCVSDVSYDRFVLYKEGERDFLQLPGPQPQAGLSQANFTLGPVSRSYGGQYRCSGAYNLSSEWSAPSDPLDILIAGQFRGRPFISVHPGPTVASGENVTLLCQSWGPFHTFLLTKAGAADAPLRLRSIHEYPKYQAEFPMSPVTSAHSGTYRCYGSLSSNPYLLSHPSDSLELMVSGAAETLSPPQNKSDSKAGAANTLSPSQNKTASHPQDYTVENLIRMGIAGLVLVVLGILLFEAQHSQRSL
# T9 sequence (Q6PI73 24-481): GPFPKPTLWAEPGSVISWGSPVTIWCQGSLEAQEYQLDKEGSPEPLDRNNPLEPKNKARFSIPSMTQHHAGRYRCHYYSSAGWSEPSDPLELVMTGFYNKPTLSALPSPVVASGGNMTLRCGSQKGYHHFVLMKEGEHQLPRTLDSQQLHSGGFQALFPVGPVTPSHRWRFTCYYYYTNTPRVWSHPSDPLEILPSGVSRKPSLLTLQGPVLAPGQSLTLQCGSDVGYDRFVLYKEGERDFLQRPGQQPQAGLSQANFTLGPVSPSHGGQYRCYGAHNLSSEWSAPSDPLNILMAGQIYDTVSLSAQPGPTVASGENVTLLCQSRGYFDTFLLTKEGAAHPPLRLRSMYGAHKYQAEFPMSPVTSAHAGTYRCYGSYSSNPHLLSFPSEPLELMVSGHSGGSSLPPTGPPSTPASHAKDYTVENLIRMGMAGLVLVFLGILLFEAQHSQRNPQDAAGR
# T7 sequence (P59901 24-499): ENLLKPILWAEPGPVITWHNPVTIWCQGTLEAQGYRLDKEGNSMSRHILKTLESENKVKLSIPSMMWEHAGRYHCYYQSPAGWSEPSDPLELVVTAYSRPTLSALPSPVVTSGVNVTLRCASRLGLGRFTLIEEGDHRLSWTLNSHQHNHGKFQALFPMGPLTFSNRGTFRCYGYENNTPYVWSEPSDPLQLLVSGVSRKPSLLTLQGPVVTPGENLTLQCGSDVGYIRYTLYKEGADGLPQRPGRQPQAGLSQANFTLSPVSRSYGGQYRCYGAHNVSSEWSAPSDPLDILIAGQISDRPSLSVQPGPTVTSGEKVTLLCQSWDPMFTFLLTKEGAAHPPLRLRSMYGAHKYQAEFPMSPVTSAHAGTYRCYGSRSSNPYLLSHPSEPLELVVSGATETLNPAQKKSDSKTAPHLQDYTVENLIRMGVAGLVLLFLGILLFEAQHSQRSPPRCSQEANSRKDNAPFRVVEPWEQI
# T10 sequence (Q8N149 24-483): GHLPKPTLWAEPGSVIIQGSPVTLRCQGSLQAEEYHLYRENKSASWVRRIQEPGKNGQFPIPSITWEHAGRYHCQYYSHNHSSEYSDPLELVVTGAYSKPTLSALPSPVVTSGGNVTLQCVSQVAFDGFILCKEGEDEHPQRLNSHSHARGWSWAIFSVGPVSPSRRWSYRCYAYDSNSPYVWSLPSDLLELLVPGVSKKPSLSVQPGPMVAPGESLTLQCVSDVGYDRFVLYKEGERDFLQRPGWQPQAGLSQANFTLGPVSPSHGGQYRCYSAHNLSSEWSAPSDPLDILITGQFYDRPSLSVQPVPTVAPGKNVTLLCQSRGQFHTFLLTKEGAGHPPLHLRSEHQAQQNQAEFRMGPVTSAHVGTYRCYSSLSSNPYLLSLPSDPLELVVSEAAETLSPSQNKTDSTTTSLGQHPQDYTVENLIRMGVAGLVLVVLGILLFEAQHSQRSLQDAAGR
# T11 sequence (O75023 24-590 limits assumed): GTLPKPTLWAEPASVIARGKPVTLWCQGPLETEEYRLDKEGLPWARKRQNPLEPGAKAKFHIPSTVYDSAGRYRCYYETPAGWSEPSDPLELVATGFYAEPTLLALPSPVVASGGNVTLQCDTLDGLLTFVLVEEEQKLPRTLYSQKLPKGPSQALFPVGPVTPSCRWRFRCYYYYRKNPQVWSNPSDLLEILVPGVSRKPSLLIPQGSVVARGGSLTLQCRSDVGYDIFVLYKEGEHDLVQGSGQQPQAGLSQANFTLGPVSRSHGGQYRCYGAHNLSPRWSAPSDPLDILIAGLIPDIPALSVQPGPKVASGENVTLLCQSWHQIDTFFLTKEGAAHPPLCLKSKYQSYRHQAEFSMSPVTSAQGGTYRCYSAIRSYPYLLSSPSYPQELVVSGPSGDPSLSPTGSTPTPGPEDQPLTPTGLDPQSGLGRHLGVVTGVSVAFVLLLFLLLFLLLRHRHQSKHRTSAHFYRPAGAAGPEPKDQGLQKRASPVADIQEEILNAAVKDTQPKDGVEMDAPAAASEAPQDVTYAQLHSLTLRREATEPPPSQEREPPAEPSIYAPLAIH
# T12 sequence (Q8N6C8 24-439): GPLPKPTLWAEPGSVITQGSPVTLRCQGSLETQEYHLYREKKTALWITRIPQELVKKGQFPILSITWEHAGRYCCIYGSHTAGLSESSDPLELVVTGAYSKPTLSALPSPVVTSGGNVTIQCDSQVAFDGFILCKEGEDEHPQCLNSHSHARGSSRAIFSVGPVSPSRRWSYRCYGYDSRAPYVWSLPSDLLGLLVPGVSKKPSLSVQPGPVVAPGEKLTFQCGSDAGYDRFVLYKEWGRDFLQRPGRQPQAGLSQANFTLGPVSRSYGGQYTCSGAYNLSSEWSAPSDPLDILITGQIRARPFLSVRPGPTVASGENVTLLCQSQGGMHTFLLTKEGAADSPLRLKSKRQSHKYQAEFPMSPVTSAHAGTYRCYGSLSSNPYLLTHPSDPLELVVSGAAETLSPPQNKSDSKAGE
binder,measurement,setting,value
B1,binding result,[1],binds
B2,EC50,[2],98.8 nM
same,Rel. maximum binding (max. MFI sample / max. MFI magrolimab),[3],92.5
same,IC50,[4],0.068 nM
same,IC50,[5],110 nM
same,Rel. maximum binding (max. MFI sample / max. MFI magrolimab),[6],87
same,"PD-L1 driven EC50 [nM], phagocytosis of H292 cells",[7],0.04 nM
same,"CD47 driven EC50 [nM], phagocytosis of H292 cells",[8],31.2 nM
same,"EC50 [nM], PD-L1 / PD-1 transgenic NFAT reporter gene assay",[9],0.272 nM
same,Kd,[10],0.0759 nM
same,koff,[10],4.19e-05 s⁻¹
same,kon,[10],552000 M⁻¹ s⁻¹
same,Kd,[11],35 nM
same,koff,[11],0.0235 s⁻¹
same,kon,[11],672000 M⁻¹ s⁻¹
same,EC50,[12],> 100 nM
B3,binding result,[13],no binding (tested: up to 100 nM)
same,binding result,[14],no binding (tested: up to 100 nM)
same,binding result,[15],no binding (tested: up to 100 nM)
same,binding result,[16],no binding (tested: up to 100 nM)
same,binding result,[17],no binding (tested: up to 100 nM)
same,binding result,[18],no binding (tested: up to 100 nM)
same,binding result,[19],no binding (tested: up to 100 nM)
same,binding result,[20],binds
same,binding result,[21],no binding (tested: up to 100 nM)
same,binding result,[22],no binding (tested: up to 100 nM)
same,binding result,[23],no binding (tested: up to 100 nM)
B4,Kd,[24],0.0133 nM
same,koff,[24],2.72e-05 s⁻¹
same,kon,[24],2.05e+06 M⁻¹ s⁻¹
same,Kd,[25],49.7 nM
same,koff,[25],0.0265 s⁻¹
same,kon,[25],533000 M⁻¹ s⁻¹
same,"PD-L1 driven EC50 [nM], phagocytosis of H292 cells",[26],0.18 nM
same,"CD47 driven EC50 [nM], phagocytosis of A375 cells",[27],27.5 nM
same,"CD47 driven EC50 [nM], phagocytosis of H292 cells",[27],28.4 nM
same,"PD-L1 driven EC50 [nM], phagocytosis of H292 cells",[7],0.19 nM
same,"CD47 driven EC50 [nM], phagocytosis of H292 cells",[8],28.2 nM
